Groups on a side chain read outwards from the residue. No end group written: not given here. *: point of attachment. DSPE = distearoyl phosphatidyl ethanolamine, CCCCCCCCCCCCCCCCCC(=O)OC[C@H](COP(=O)(O)OCCN*)OC(=O)CCCCCCCCCCCCCCCCC; maleimide = Maleimide, used for thiol-reactive attachment of PEG to a Cys (thioether bond)
These binders were tested against human GLP-1 receptor (human, UniProt P43220 24-463) (assay: cell-based or functional assay).
In the case of HVEGTFTSDC([maleimide-PEG 3.4 kDa-DSPE])SSYLEGQAAKEFIAWLVKGRG [V8C16-3.4 kDa DPSE-PEG], the “in vitro potency (EC50) in the CRE-BLAM reporter assay on HEK-293 cells expressing the human GLP-1 receptor, relative to V8GLP-1 equal to 100%” value is reported as 4%.
In the case of HVEGTFTSDVSSYLEGQAAKEFIAWLVKGRGC([maleimide-PEG 3.4 kDa-DSPE]) [V8C38-3.4 kDa DPSE-PEG], the “in vitro potency (EC50) in the CRE-BLAM reporter assay on HEK-293 cells expressing the human GLP-1 receptor, relative to V8GLP-1 equal to 100%” value is reported as 18%.
With HVEGTFTSDVSSYLEGQAAKEFIAWLVKGRGC([maleimide-PEG 40 kDa branched]) [V8C38-40 kDa PEG] the “in vitro potency (EC50) in the CRE-BLAM reporter assay on HEK-293 cells expressing the human GLP-1 receptor, relative to V8GLP-1 equal to 100%” value was 3%.
With HVEGTFTSDC([maleimide-PEG 40 kDa branched])SSYLEEQAAKEFIAWLVKGRG [V8E22C16-40 kDa PEG] the “in vitro potency (EC50) in the CRE-BLAM reporter assay on HEK-293 cells expressing the human GLP-1 receptor, relative to V8GLP-1 equal to 100%” value was 0.7%.
